The data set in a line: total protein half-life in vivo (active degradation + dilution); higher = more stable protein.
Setting [1] is: E. coli NCM3722 delta-hslV, growth: N-lim chemostat, doubling time 6 h.
[2] abbreviates: E. coli NCM3722 delta-lon, growth: N-lim chemostat, doubling time 6 h.
[3] abbreviates: E. coli NCM3722 delta-smpB, growth: N-lim chemostat, doubling time 6 h.
Where [4] appears, read: wild type E. coli NCM3722, growth: C-lim chemostat, doubling time 3 h.
The mark [5] stands for this setting: wild type E. coli NCM3722, growth: C-lim chemostat, doubling time 6 h.
The mark [6] stands for this setting: wild type E. coli NCM3722, growth: C-lim chemostat, doubling time 12 h.
Where [7] appears, read: wild type E. coli NCM3722, growth: P-lim chemostat, doubling time 6 h.
The mark [8] stands for this setting: wild type E. coli NCM3722, growth: P-lim chemostat, doubling time 12 h.
Setting [9] is: E. coli NCM3722 delta-clpP delta-lon delta-hslV, growth: N-lim chemostat, doubling time 6 h.
[10] abbreviates: E. coli NCM3722 delta-clpP, growth: N-lim chemostat, doubling time 6 h.
The mark [11] stands for this setting: wild type E. coli NCM3722, growth: N-lim chemostat, doubling time 6 h.
[12] abbreviates: wild type E. coli NCM3722, growth: N-lim chemostat, doubling time 12 h.

± gives the standard deviation of the averaged measurements.

“MTEFTTLLQQGNAWFFIPSAILLGALHGLEPGHSKTMMAAFIIAIKGTIKQAVMLGLAATISHTAVVWLIAFGGMVISKRFTAQSAEPWLQLISAVIIISTAFWMFWRTWRGERNWLENMHGHDYEHHHHDHEHHHDHGHHHHHEHGEYQDAHARAHANDIKRRFDGREVTNWQILLFGLTGGLIPCPAAITVLLICIQLKALTLGATLVVSFSIGLALTLVTVGVGAAISVQQVAKRWSGFNTLAKRAPYFSSLLIGLVGVYMGVHGFMGIMR”: the “total protein half-life in vivo” value under setting [1] came out at 4.77 h; the “total protein half-life in vivo” value under setting [2] amounted to 4.13 h; the “total protein half-life in vivo” value under setting [3] stood at 5.43 ± 0.75 h; the “total protein half-life in vivo” value under setting [4] is above 4 h; the “total protein half-life in vivo” value under setting [5] was determined as 5.864 ± 0.02 h; the “total protein half-life in vivo” value under setting [6] was found to be 10.8 h. Moreover, the “total protein half-life in vivo” value was 5.97 h under setting [7] and 11.6 h under setting [8].
As to “MNYQMITTDDALASLCEAVRAFPAIALDTEFVRTRTYYPQLGLIQLFDGEHLALIDPLGITDWSPLKAILRDPSITKFLHAGSEDLEVFLNVFGELPQPLIDTQILAAFCGRPMSWGFASMVEEYSGVTLDKSESRTDWLARPLTERQCEYAAADVWYLLPITAKLMVETEASGWLPAALDECRLMQMRRQEVVAPEDAWRDITNAWQLRTRQLACLQLLADWRLRKARERDLAVNFVVREEHLWSVARYMPGSLGELDSLGLSGSEIRFHGKTLLALVEKAQTLPEDALPQPMLNLMDMPGYRKAFKAIKSLITDVSETHKISAELLASRRQINQLLNWHWKLKPQNNLPELISGWRGELMAEALHNLLQEYPQ”, the “total protein half-life in vivo” value is 4.11 ± 0.93 h under setting [9]; 4.41 ± 1.4 h under setting [10]; 3.88 ± 0.32 h under setting [1]; 4.79 ± 1.2 h under setting [2]; 3.65 ± 0.37 h under setting [3]; above 4 h under setting [4]. Moreover, the “total protein half-life in vivo” value was 5.23 ± 0.24 h under setting [5]; 10 ± 0.67 h under setting [6]; 3.834 ± 0.0071 h under setting [11]; 6.31 ± 1.4 h under setting [12]; 5.82 ± 0.58 h under setting [7]; 11.8 ± 1.5 h under setting [8].
Regarding “MKTIEVDDELYSYIASHTKHIGESASDILRRMLKFSAASQPAAPVTKEVRVASPAIVEAKPVKTIKDKVRAMRELLLSDEYAEQKRAVNRFMLLLSTLYSLDAQAFAEATESLHGRTRVYFAADEQTLLKNGNQTKPKHVPGTPYWVITNTNTGRKCSMIEHIMQSMQFPAELIEKVCGTI [P0AFY8]”, the “total protein half-life in vivo” value under setting [9] stood at 6.27 ± 0.64 h; the “total protein half-life in vivo” value under setting [10] was found to be 5.709 ± 0.046 h; the “total protein half-life in vivo” value under setting [1] was determined as 5.89 ± 0.072 h; the “total protein half-life in vivo” value under setting [2] was 5.19 ± 0.16 h; the “total protein half-life in vivo” value under setting [3] turned out to be 4.27 ± 0.23 h; the “total protein half-life in vivo” value under setting [4] worked out at 2.738 ± 0.014 h. Moreover, the “total protein half-life in vivo” value by setting is: under setting [5], 4.84 ± 0.89 h; under setting [6], 12.7 ± 0.44 h; under setting [11], 4.7 ± 0.42 h; under setting [12], 8.55 ± 1.1 h; under setting [7], 4.71 ± 0.44 h; under setting [8], 9.12 ± 0.4 h.
Take “MKRSLLFSAVLCAASLTSVHAAQPITEPEFASDIVDRYADHIFYGSGATGMALVVIDGNQRVFRSYGETRPGNNVRPQLDSVVRIASLTKLMTSEMLVKLLDQGTVKLNDPLSKYAPPGARVPTYNGTPITLVNLATHTSALPREQPGGAAHRPVFVWPTREQRWKYLSTAKLKAAPGSQAAYSNLAFDLLADALANASGKPYTQLFEEQITRPLGMKDTTYTPSPDQCRRLMVAERGASPCNNTLAAIGSGGVYSTPGDMMRWMQQYLSSDFYQRSNQADRMQTLIYQRAQFTKVIGMDVPGKADALGLGWVYMAPKEGRPGIIQKTGGGGGFITYMAMIPQKNIGAFVVVTRSPLTRFKNMSDGINDLVTELSGNKPLVIPAS [P0AD70]”: the “total protein half-life in vivo” value under setting [9] amounted to 3.75 ± 0.98 h; the “total protein half-life in vivo” value under setting [10] was 2.49 ± 0.33 h; the “total protein half-life in vivo” value under setting [1] was found to be 3.37 ± 0.26 h; the “total protein half-life in vivo” value under setting [2] was 3.68 ± 0.084 h; the “total protein half-life in vivo” value under setting [3] came out at 3.17 ± 0.11 h; the “total protein half-life in vivo” value under setting [4] was found to be 1.96 ± 0.34 h. In addition, the “total protein half-life in vivo” value under setting [5] was 3.73 ± 0.71 h; the “total protein half-life in vivo” value under setting [6] is 5.69 ± 1.3 h; the “total protein half-life in vivo” value under setting [11] worked out at 3.96 ± 1 h; the “total protein half-life in vivo” value under setting [12] was found to be 5.33 ± 0.35 h; the “total protein half-life in vivo” value under setting [7] was 3.62 ± 0.42 h; the “total protein half-life in vivo” value under setting [8] worked out at 6.14 ± 1.1 h.
Regarding “MSNLLGPRDANGIPVPMTVDESIASMKASLLKKIKRSAYVYRVDCGGCNGCEIEIFATLSPLFDAERFGIKVVPSPRHADILLFTGAVTRAMRSPALRAWQSAPDPKICISYGACGNSGGIFHDLYCVWGGTDKIVPVDVYIPGCPPTPAATLYGFAMALGLLEQKIHARGPGELDEQPAEILHGDMVQPLRVKVDREARRLAGYRYGRQIADDYLTQLGQGEEQVARWLEAENDPRLNEIVSHLNHVVEEARIR”, under setting [9], the “total protein half-life in vivo” value worked out at 5.31 h.
“MFQKVDAYAGDPILTLMERFKEDPRSDKVNLSIGLYYNEDGIIPQLQAVAEAEARLNAQPHGASLYLPMEGLNCYRHAIAPLLFGADHPVLKQQRVATIQTLGGSGALKVGADFLKRYFPESGVWVSDPTWENHVAIFAGAGFEVSTYPWYDEATNGVRFNDLLATLKTLPARSIVLLHPCCHNPTGADLTNDQWDAVIEILKARELIPFLDIAYQGFGAGMEEDAYAIRAIASAGLPALVSNSFSKIFSLYGERVGGLSVMCEDAEAAGRVLGQLKATVRRNYSSPPNFGAQVVAAVLNDEALKASWLAEVEEMRTRILAMRQELVKVLSTEMPERNFDYLLNQRGMFSYTGLSAAQVDRLREEFGVYLIASGRMCVAGLNTANVQRVAKAFAAVM”: the “total protein half-life in vivo” value is, setting by setting: under setting [9], 4.07 ± 1.2 h; under setting [10], 2.43 ± 0.047 h; under setting [1], 2.54 ± 0.061 h; under setting [2], 3.01 ± 0.049 h; under setting [3], 2.676 ± 0.003 h; under setting [4], 3.06 ± 0.56 h. Also, the “total protein half-life in vivo” value under setting [5] was found to be 4.92 ± 0.29 h; the “total protein half-life in vivo” value under setting [6] was determined as 7.47 ± 0.87 h; the “total protein half-life in vivo” value under setting [11] was 2.62 ± 0.058 h; the “total protein half-life in vivo” value under setting [12] was found to be 3.66 ± 0.17 h; the “total protein half-life in vivo” value under setting [7] worked out at 5.28 ± 0.29 h; the “total protein half-life in vivo” value under setting [8] came to 9.773 ± 0.058 h.

The record behind these values is the supplement of paper PMC11246515.
